Laboratory results published in the supplement of paper PMC9112550, “Optimization of the antimicrobial peptide Bac7 by deep mutational scanning” (BMC Biology, 2022).

Test system: Escherichia coli TOP10
Assay: shrunken log2 fold change of peptide-encoding DNA abundance (4.5 h post-induction vs induction); higher = less antimicrobial activity (less host growth inhibition)
Settings: time post-induction: 4.5 h; library: site-saturation at positions 5, 18, 19, 20
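Also: peptides expressed intracellularly from a pBAD plasmid library in pooled LB shake-flask culture, induced with 0.3% L-arabinose, DNA abundance read by NGS, three biological replicates, DESeq2 with apeglm shrinkage.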

Sequence	shrunken log2 fold change
RRIRGRPPRLPRPRPRPNAYPRP	0.426
RRIRVRPPRLPRPRPRPDCAPRP	0.0509
RRIRTRPPRLPRPRPRPKRYPRP	-0.154
RRIRSRPPRLPRPRPRPESDPRP	0.306
RRIRSRPPRLPRPRPRPKDTPRP	-0.145
RRIRSRPPRLPRPRPRPDNCPRP	-0.103
RRIRERPPRLPRPRPRPGKCPRP	-0.205
RRIRKRPPRLPRPRPRPETQPRP	-0.119
RRIRWRPPRLPRPRPRPKCRPRP	0.294
RRIRFRPPRLPRPRPRPWENPRP	-0.0884
RRIRCRPPRLPRPRPRPGFAPRP	0.354
RRIRRRPPRLPRPRPRPDVYPRP	-0.0445
RRIRWRPPRLPRPRPRPHSWPRP	0.189
RRIRGRPPRLPRPRPRPGQPPRP	0.462
RRIRMRPPRLPRPRPRPQMSPRP	0.174
RRIRERPPRLPRPRPRPQCWPRP	-0.0051
RRIRNRPPRLPRPRPRPDWMPRP	-0.0128
RRIRLRPPRLPRPRPRPGLVPRP	0.0948
RRIRRRPPRLPRPRPRPFMDPRP	-0.148
RRIRTRPPRLPRPRPRPYCKPRP	-0.129
RRIRNRPPRLPRPRPRPELYPRP	0.23
RRIRDRPPRLPRPRPRPEGQPRP	1.15
RRIRGRPPRLPRPRPRPHQMPRP	0.532
RRIRPRPPRLPRPRPRPYTNPRP	-0.709
RRIRDRPPRLPRPRPRPSCHPRP	-0.287

Sequence	shrunken log2 fold change
RRIRMRPPRLPRPRPRPQNYPRP	-0.377
RRIRCRPPRLPRPRPRPGDFPRP	-0.0027
RRIRWRPPRLPRPRPRPSITPRP	-0.0237
RRIRLRPPRLPRPRPRPCGPPRP	-0.107
RRIRSRPPRLPRPRPRPEEPPRP	0.729
RRIRGRPPRLPRPRPRPAMSPRP	0.508
RRIRKRPPRLPRPRPRPQSCPRP	-0.0373
RRIRLRPPRLPRPRPRPSNTPRP	-0.624
RRIRARPPRLPRPRPRPYHYPRP	-0.0868
RRIRQRPPRLPRPRPRPFFHPRP	-0.532
RRIRCRPPRLPRPRPRPNCHPRP	-0.314
RRIRPRPPRLPRPRPRPDTPPRP	0.0412
RRIRYRPPRLPRPRPRPDCTPRP	-0.268
RRIRERPPRLPRPRPRPWGCPRP	-0.364
RRIRVRPPRLPRPRPRPYGKPRP	-0.289
RRIRDRPPRLPRPRPRPNSIPRP	-0.211
RRIRHRPPRLPRPRPRPTHGPRP	0.125
RRIRSRPPRLPRPRPRPDSMPRP	-0.339
RRIRHRPPRLPRPRPRPKQLPRP	-0.553
RRIRHRPPRLPRPRPRPSWGPRP	-0.0416
RRIRFRPPRLPRPRPRPGTRPRP	0.208
RRIRRRPPRLPRPRPRPGIEPRP	-0.0777
RRIRWRPPRLPRPRPRPNWHPRP	-0.00322
RRIRSRPPRLPRPRPRPDNMPRP	-0.208
RRIRWRPPRLPRPRPRPNELPRP	0.073

Sequence	shrunken log2 fold change
RRIRKRPPRLPRPRPRPHMPPRP	-0.175
RRIRCRPPRLPRPRPRPEIAPRP	0.193
RRIRDRPPRLPRPRPRPYNLPRP	-0.0574
RRIRLRPPRLPRPRPRPRHWPRP	0.679
RRIRVRPPRLPRPRPRPLEGPRP	0.138
RRIRWRPPRLPRPRPRPSMMPRP	0.157
RRIRHRPPRLPRPRPRPEFWPRP	0.42
RRIRDRPPRLPRPRPRPNFSPRP	-0.0622
RRIRGRPPRLPRPRPRPKTRPRP	0.884
RRIRSRPPRLPRPRPRPNCQPRP	-0.0974
RRIRVRPPRLPRPRPRPNQAPRP	0.0159
RRIRFRPPRLPRPRPRPFPAPRP	-0.132
RRIRPRPPRLPRPRPRPRNLPRP	0.067
RRIRNRPPRLPRPRPRPKCVPRP	-0.0346
RRIRNRPPRLPRPRPRPYWFPRP	-0.124
RRIRNRPPRLPRPRPRPIWSPRP	0.0615
RRIRWRPPRLPRPRPRPFRMPRP	-0.122
RRIRPRPPRLPRPRPRPEWAPRP	2.06
RRIRERPPRLPRPRPRPNWQPRP	0.103
RRIRWRPPRLPRPRPRPYIAPRP	-0.825
RRIRMRPPRLPRPRPRPYGQPRP	0.0303
RRIRPRPPRLPRPRPRPFRTPRP	-0.362
RRIRNRPPRLPRPRPRPKAKPRP	0.146
RRIRKRPPRLPRPRPRPIKNPRP	-0.188
RRIRARPPRLPRPRPRPTSGPRP	0.343
